Measured values: the supplement of paper PMC10126150
± gives the standard deviation of the averaged measurements.

tested on: ATP; assay: switch fluorescence ratio, 500 uM ATP over buffer (Cy3 cluster intensity, sum of 5 cycles each) (fold (ratio)); higher = stronger signal-on switching upon ATP binding; sequences stand for … in TCGTCGGCAGCGTCAGATGTGTATAAGAGACAGTTTTTTTTTTTTTTTTTTTTTTTTT…TC; settings: aptamer strand: ATP DNA aptamer (quencher-CACCTGGGGGAGTATTGCGGAGGAAGG + anchor), 100 nM annealed; ATP concentration: 500 uM
In short: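 After annealing to 100 nM quencher-labelled ATP aptamer, Cy3-labelled switching-strand clusters on a modified Illumina MiSeq flow-cell were imaged in selection buffer. A second image followed after 15 min with 500 uM ATP at 22 °C, and five such buffer/ATP cycles were done, each separated by NaOH stripping and re-annealing. The fluorescence ratio, averaged per switch-domain sequence, is summed target-cycle over summed buffer-cycle Cy3 intensity per cluster, with clusters outside 100-1000 RFU excluded.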
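Also: ATP exposure 15 min at 22 °C before imaging.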

Sequence | switch fluorescence ratio
GAGTCATTAA | 0.96 ± 0.041
GAGTCCAGGC | 1.07 ± 0.16
GAGTCCCTGA | 0.993 ± 0.032
GAGTCCTCTT | 1.01 ± 0.032
GAGTCGGCGC | 0.983 ± 0.1
GAGTCGGTTA | 0.98 ± 0.045
GAGTCTCTTA | 1 ± 0.027
GAGTCTGGT | 0.981 ± 0.036
GAGTGAAAGT | 0.99 ± 0.023
GAGTGAGCAG | 0.976 ± 0.022
GAGTGAGGGT | 0.987 ± 0.031
GAGTGCAATT | 1.19 ± 0.034
GAGTGCAGGG | 0.994 ± 0.03
GAGTGCAGGT | 1.01 ± 0.015
GAGTGCCGGG | 1.03 ± 0.016
GAGTGCGACG | 1.08 ± 0.078
GAGTGGACTC | 0.999 ± 0.029
GAGTGGGGA | 1.03 ± 0.04
GAGTGGGGTA | 1 ± 0.011
GAGTGGTCGC | 1.002 ± 0.0014
GAGTGTAAGA | 1 ± 0.034
GAGTGTCCGG | 0.982 ± 0.025
GAGTGTGACT | 0.97 ± 0.055
GAGTGTGCGC | 1.02 ± 0.03
GAGTGTGCGT | 0.975 ± 0.036

Sequence | switch fluorescence ratio
GAGTGTTCGG | 0.988 ± 0.042
GAGTGTTCTT | 0.977 ± 0.01
GAGTGTTTAG | 1.01 ± 0.016
GAGTTACGGG | 1.01 ± 0.072
GAGTTCAGTA | 0.975 ± 0.034
GAGTTCATAG | 1 ± 0.013
GAGTTCGGGA | 1.02 ± 0.029
GAGTTGAAAA | 0.9868 ± 0.001
GAGTTGGTTT | 1 ± 0.022
GAGTTGTGGG | 0.993 ± 0.014
GAGTTGTGTA | 0.985 ± 0.035
GAGTTGTTAT | 0.973 ± 0.037
GAGTTGTTGT | 0.996 ± 0.018
GAGTTTAAAT | 1.02 ± 0.022
GAGTTTCAGA | 1.033 ± 0.0033
GAGTTTCAGT | 1.04 ± 0.073
GAGTTTGTTA | 1.01 ± 0.07
GAGTTTGTTT | 0.99 ± 0.044
GAGTTTTGGC | 0.952 ± 0.09
GATAAAGTAA | 0.983 ± 0.015
GATAAATGTA | 0.9808 ± 0.0084
GATAACGGGG | 0.972 ± 0.02
GATAAGGGGA | 1.03 ± 0.023
GATAATAGGC | 1 ± 0.06
GATAATATAA | 1.02 ± 0.026

Sequence | switch fluorescence ratio
GATAATGCGG | 1.01 ± 0.025
GATAATTATG | 0.98 ± 0.019
GATAATTCTG | 1 ± 0.024
GATAATTGG | 0.988 ± 0.02
GATAATTGTA | 0.9822 ± 0.0033
GATACCGGTG | 1.17 ± 0.25
GATACGCGGG | 0.9947 ± 0.0057
GATAGCTGGG | 1 ± 0.014
GATAGGATGG | 0.9842 ± 0.0027
GATAGGATTG | 0.987 ± 0.022
GATAGGCGTG | 1.01 ± 0.029
GATAGGGATG | 1.001 ± 0.0062
GATAGGGTAT | 0.986 ± 0.015
GATAGGTATA | 1.01 ± 0.032
GATAGGTTTC | 0.977 ± 0.07
GATAGTCATG | 0.985 ± 0.015
GATAGTTGCG | 1.03 ± 0.06
GATATACCTT | 1.15 ± 0.015
GATATAGTAT | 0.993 ± 0.039
GATATAGTGC | 1.01 ± 0.05
GATATATGAG | 0.997 ± 0.064
GATATATTGC | 1.03 ± 0.012
GATATCACTG | 1.02 ± 0.016
GATATCTGGA | 1.018 ± 0.0099
GATATGAGGG | 1.029 ± 0.0037

Sequence | switch fluorescence ratio
GATATGCGTC | 1.04 ± 0.0086
GATATGCTGT | 0.985 ± 0.017
GATATGGAAG | 1.13 ± 0.23
GATATGGATT | 0.977 ± 0.016
GATATGGGAG | 0.988 ± 0.018
GATATGTGTG | 0.991 ± 0.011
GATATGTTGA | 1 ± 0.023
GATATTATCA | 1.017 ± 0.0049
GATATTCGGG | 0.988 ± 0.017
GATATTGAGC | 1.02 ± 0.026
GATATTGTGG | 0.987 ± 0.025
GATATTTAGG | 1.02 ± 0.038
GATATTTCGT | 0.9768 ± 0.0034
GATATTTTTG | 1 ± 0.024
GATCAAATAT | 1.01 ± 0.0063
GATCACGTTG | 0.999 ± 0.022
GATCACTATA | 1.03 ± 0.054
GATCACTGTA | 1.15 ± 0.036
GATCAGAGGT | 1 ± 0.029
GATCATATTT | 1 ± 0.017
GATCATGCTA | 1.02 ± 0.02
GATCCAGAAT | 0.9977 ± 0.0074
GATCCATACT | 1.06 ± 0.042
GATCCCAGAG | 1.16 ± 0.082
GATCCCGCGG | 1.049 ± 0.0088

Sequence | switch fluorescence ratio
GATCCGAGTT | 0.99 ± 0.034
GATCCTACGG | 0.972 ± 0.048
GATCCTGAGG | 0.968 ± 0.077
GATCGAAGGG | 0.9849 ± 0.0079
GATCGATCGT | 1 ± 0.027
GATCGCCGTT | 1.07 ± 0.063
GATCGGGTTG | 0.999 ± 0.026
GATCGTATAT | 0.9987 ± 0.0084
GATCTCCCCT | 1.38 ± 0.053
GATCTGGCGG | 1.01 ± 0.034
GATCTGGCTT | 0.976 ± 0.031
GATCTTAACA | 1.003 ± 0.0089
GATGAAACGT | 1.06 ± 0.045
GATGAATGCT | 0.9814 ± 0.0034
GATGACAGGT | 1.03 ± 0.041
GATGACAGTG | 0.969 ± 0.083
GATGAGCTGT | 1.03 ± 0.046
GATGAGTCTG | 0.98 ± 0.044
GATGAGTTGT | 0.961 ± 0.021
GATGATGGGA | 0.97941 ± 0.00096
GATGATGGGG | 0.998 ± 0.044
GATGATGGGT | 1 ± 0.023
GATGATTATG | 0.993 ± 0.011
GATGATTATT | 0.9856 ± 0.0018
GATGATTTGT | 1.02 ± 0.058

Sequence | switch fluorescence ratio
GATGCAAGTG | 1.07 ± 0.033
GATGCCTGGA | 1.02 ± 0.086
GATGCGATGT | 1.18 ± 0.036
GATGCGGGAG | 1.0227 ± 0.00027
GATGCTTATG | 1.01 ± 0.04
GATGGACTAA | 1.02 ± 0.018
GATGGAGATA | 0.936 ± 0.06
GATGGAGGGC | 1.05 ± 0.039
GATGGCGGGC | 1.01 ± 0.013
GATGGCTGCG | 1.04 ± 0.039
GATGGGAAAT | 1 ± 0.012
GATGGGAATG | 1.01 ± 0.013
GATGGGGCTC | 0.979 ± 0.024
GATGGGGTGT | 1.03 ± 0.027
GATGGTGTAA | 0.967 ± 0.028
GATGGTTATC | 0.961 ± 0.026
GATGGTTGGG | 0.998 ± 0.029
GATGGTTGTC | 1 ± 0.055
GATGTAACAC | 1.07 ± 0.013
GATGTACACG | 1.013 ± 0.003
GATGTCAACG | 0.973 ± 0.032
GATGTCGTAC | 0.99 ± 0.012
GATGTCGTGG | 1.015 ± 0.0089
GATGTCTCGA | 0.982 ± 0.079
GATGTGCACC | 0.983 ± 0.027

Sequence | switch fluorescence ratio
GATGTGGGCA | 1.05 ± 0.026
GATGTGGTGG | 0.99 ± 0.034
GATGTGTGCG | 0.897 ± 0.13
GATGTGTTTC | 1.03 ± 0.06
GATGTTATTC | 0.978 ± 0.011
GATGTTGTAC | 1.09 ± 0.079
GATGTTGTTA | 0.9647 ± 0.0086
GATGTTTGGA | 1.014 ± 0.0049
GATGTTTTCT | 0.982 ± 0.054
GATTAAAAAT | 1.0123 ± 0.00055
GATTAAAGGA | 1.01 ± 0.011
GATTAAAGGC | 1.01 ± 0.039
GATTAAAGGG | 1.001 ± 0.0085
GATTAACGTG | 0.9917 ± 0.0044
GATTAAGCGT | 0.984 ± 0.042
GATTAATTTT | 1.02 ± 0.043
GATTACAGGG | 0.957 ± 0.038
GATTACTTCA | 1.065 ± 0.0071
GATTAGGAGT | 0.985 ± 0.014
GATTAGGCGG | 0.982 ± 0.066
GATTAGGCTC | 1.03 ± 0.082
GATTATAGGT | 1.01 ± 0.015
GATTATGGCG | 1.047 ± 0.0054
GATTATTCGT | 0.99 ± 0.028
GATTATTGTA | 0.9762 ± 0.0045

Sequence | switch fluorescence ratio
GATTCAGGAG | 1 ± 0.032
GATTCAGGGT | 1 ± 0.024
GATTCCGAGC | 1.44 ± 0.53
GATTCGCCTG | 0.99 ± 0.016
GATTCGGGCG | 1 ± 0.069
GATTCGGGGT | 1 ± 0.017
GATTCGTGGC | 0.906 ± 0.14
GATTCTCCGT | 1.16 ± 0.016
GATTCTGGCA | 0.9715 ± 0.0057
GATTCTTTTC | 0.991 ± 0.014
GATTGACAAT | 1.03 ± 0.031
GATTGAGAGT | 1.019 ± 0.0087
GATTGAGGTC | 0.989 ± 0.037
GATTGATGTG | 0.995 ± 0.037
GATTGATTTT | 1.02 ± 0.044
GATTGCCGAT | 1 ± 0.034
GATTGCCGGT | 1.01 ± 0.015
GATTGGAGCA | 1.02 ± 0.034
GATTGGGGGT | 0.982 ± 0.03
GATTGGGTAC | 1.03 ± 0.025
GATTGGTAAT | 0.996 ± 0.028
GATTGGTGAG | 1.001 ± 0.0046
GATTGGTGGG | 1.003 ± 0.0041
GATTGGTGTG | 0.997 ± 0.024
GATTGGTTAT | 0.962 ± 0.029
